Measured values published in patent US20180118814A1.

What was measured:
[1] = biological target: HBsAg-L antigen (Beacle, BCL-AG-001) (hepatitis B virus); assay: ELISA, plate coated with 1 µg/mL HBsAg-L, anti-human kappa-HRP detection, cell culture supernatant
[2] = biological target: HBsAg-L antigen (Beacle, BCL-AG-001) (hepatitis B virus); assay: ELISA, plate coated with 1 µg/mL HBsAg-L, anti-human kappa-HRP detection, purified protein

EC50 [1]: 0.057 nM
EC50 [2]: 0.061 nM
B1: HBV24G (antibody, human IgG1, kappa, V domains shown)
VH: QVQLVQSGAEVKAPGASVKVSCKASGYTFTSAWMNWVRQAPGQGLEWMGRIYPSGGSTSYAQKFQGRVTMTADKSTSTVYMELSSLRSEDTAVYYCAREYRVARWGQGTLVTVSS
VL: DIVMTQTPLSLSVTPGQPASISCKSSQSLLYSNGKTYLNWLLQKPGQPPQRLIYLVSNRDSGVPDRFSGSGSGTDFTLKISRVEAEDVGVYYCVQGTHFPQTFGGGTKVEIKR
